Measurements: US20070098719A1 (GITR, published 2007)

Assays:
[1] = biological target: T1, human GITR (hGITR), glucocorticoid-induced TNF receptor (UniProt Q9Y5U5 26-241); assay: SPR
T1 chain: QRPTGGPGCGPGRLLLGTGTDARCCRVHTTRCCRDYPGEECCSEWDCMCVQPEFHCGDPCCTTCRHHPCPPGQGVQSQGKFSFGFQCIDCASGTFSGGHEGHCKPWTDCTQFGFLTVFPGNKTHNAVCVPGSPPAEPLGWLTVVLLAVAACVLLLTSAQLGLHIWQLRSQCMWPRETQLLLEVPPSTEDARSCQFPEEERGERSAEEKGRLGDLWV

[2] = biological target: T2, human GITR (hGITR), glucocorticoid-induced TNF receptor (human, UniProt Q9Y5U5 26-241); assay: FACS, L-M (mouse fibroblast) cells transfected with the GITR gene, 50 ul hybridoma supernatant
T2 construct: also called TNFRSF18
T2 sequence: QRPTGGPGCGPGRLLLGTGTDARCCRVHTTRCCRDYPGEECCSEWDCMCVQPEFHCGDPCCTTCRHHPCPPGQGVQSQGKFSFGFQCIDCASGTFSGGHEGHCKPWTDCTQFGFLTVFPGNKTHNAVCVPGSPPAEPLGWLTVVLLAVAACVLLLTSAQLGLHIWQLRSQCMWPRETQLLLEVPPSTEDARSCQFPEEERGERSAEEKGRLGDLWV
Procedure: FIG. 3 depicts a FACS analysis of L-M (mouse fibroblast) cells transfected with the GITR gene that were stained with 50 μl of supernatant fluid from GITR-expressing hybridoma cells. The GITR binding molecule stained GITR-transfected cells but not the untransfected L-M cells.

Kd [1]: 1.1 nM
binding result [2]: binds
B1: 6C8 antibody (antibody, V domains shown)
VH: QVTLKESGPGILKPSQTLSLTCSFSGFSLSTSGMGVGWIRQPSGKGLEWLAHIWWDDDKYYNPSLKSQLTISKDTSRNQVFLKITSVDTADAATYYCARTRRYFPFAYWGQGTLVTVSS
VL: DIVMTQSQKFMSTSVGDRVSVTCKASQNVGTNVAWYQQKPGQSPKALIYSASYRYSGVPDRFTGSGSGTDFTLTINNVHSEDLAEYFCQQYNTDPLTFGAGTKLEIK
notes: also called anti-GITR
